In paper PMC11574045, “A cofactor-induced repressive type of transcription factor condensation can be induced by synthetic peptides to suppress tumorigenesis” (The EMBO Journal, 2024):

B1: TAF1C (protein, UniProt Q15572 1-869, looked up)
TATA box-binding …: MDFPSSLRPALFLTGPLGLSDVPDLSFMCSWRDALTLPEAQPQNSENGALHVTKDLLWEPATPGPLPMLPPLIDPWDPGLTARDLLFRGGCRYRKRPRVVLDVTEQISRFLLDHGDVAFAPLGKLMLENFKLEGAGSRTKKKTVVSVKKLLQDLGGHQPWGCPWAYLSNRQRRFSILGGPILGTSVASHLAELLHEELVLRWEQLLLDEACTGGALAWVPGRTPQFGQLVYPAGGAQDRLHFQEVVLTPGDNPQFLGKPGRIQLQGPVRQVVTCTVQGESKALIYTFLPHWLTCYLTPGPFHPSSALLAVRSDYHCAVWKFGKQWQPTLLQAMQVEKGATGISLSPHLPGELAICSRSGAVCLWSPEDGLRQIYRDPETLVFRDSSSWRWADFTAHPRVLTVGDRTGVKMLDTQGPPGCGLLLFRLGAEASCQKGERVLLTQYLGHSSPKCLPPTLHLVCTQFSLYLVDERLPLVPMLKWNHGLPSPLLLARLLPPPRPSCVQPLLLGGQGGQLQLLHLAGEGASVPRLAGPPQSLPSRIDSLPAFPLLEPKIQWRLQERLKAPTIGLAAVVPPLPSAPTPGLVLFQLSAAGDVFYQQLRPQVDSSLRRDAGPPGDTQPDCHAPTASWTSQDTAGCSQWLKALLKVPLAPPVWTAPTFTHRQMLGSTELRREEEEGQRLGVLRKAMARGQLLLQRDLGSLPAAEPPPAPESGLEDKLSERLGEAWAGRGAAWWERQQGRTSEPGRQTRRPKRRTQLSSSFSLSGHVDPSEDTSSPHSPEWPPADALPLPPTTPPSQELTPDACAQGVPSEQRQMLRDYMAKLPPQRDTPGCATTPPHSQASSVRATRSQQHTPVLSSSQPLRKKPRMGF
B2: BHLHE41 (protein, UniProt Q9C0J9 1-482, looked up)
Class E basic …: MDEGIPHLQERQLLEHRDFIGLDYSSLYMCKPKRSMKRDDTKDTYKLPHRLIEKKRRDRINECIAQLKDLLPEHLKLTTLGHLEKAVVLELTLKHLKALTALTEQQHQKIIALQNGERSLKSPIQSDLDAFHSGFQTCAKEVLQYLSRFESWTPREPRCVQLINHLHAVATQFLPTPQLLTQQVPLSKGTGAPSAAGSAAAPCLERAGQKLEPLAYCVPVIQRTQPSAELAAENDTDTDSGYGGEAEARPDREKGKGAGASRVTIKQEPPGEDSPAPKRMKLDSRGGGSGGGPGGGAAAAAAALLGPDPAAAAALLRPDAALLSSLVAFGGGGGAPFPQPAAAAAPFCLPFCFLSPSAAAAYVQPFLDKSGLEKYLYPAAAAAPFPLLYPGIPAPAAAAAAAAAAAAAAAAFPCLSSVLSPPPEKAGAAAATLLPHEVAPLGAPHPQHPHGRTHLPFAGPREPGNPESSAQEDPSQPGKEAP
B3: SSX5 (protein, UniProt O60225 1-188, looked up)
Protein SSX5: MNGDDAFVRRPRVGSQIPEKMQKAFDDIAKYFSEKEWEKMKASEKIIYVYMKRKYEAMTKLGFKATLPPFMRNKRVADFQGNDFDNDPNRGNQVEHPQMTFGRLQGIFPKITPEKPAEEGNDSKGVPEASGPQNNGKQLRPSGKLNTSEKVNKTSGPKRGKHAWTHRVRERKQLVIYEEISDPQEDDE
B4: STAT5A (protein, UniProt P42229 1-794, looked up)
Signal transducer and …: MAGWIQAQQLQGDALRQMQVLYGQHFPIEVRHYLAQWIESQPWDAIDLDNPQDRAQATQLLEGLVQELQKKAEHQVGEDGFLLKIKLGHYATQLQKTYDRCPLELVRCIRHILYNEQRLVREANNCSSPAGILVDAMSQKHLQINQTFEELRLVTQDTENELKKLQQTQEYFIIQYQESLRIQAQFAQLAQLSPQERLSRETALQQKQVSLEAWLQREAQTLQQYRVELAEKHQKTLQLLRKQQTIILDDELIQWKRRQQLAGNGGPPEGSLDVLQSWCEKLAEIIWQNRQQIRRAEHLCQQLPIPGPVEEMLAEVNATITDIISALVTSTFIIEKQPPQVLKTQTKFAATVRLLVGGKLNVHMNPPQVKATIISEQQAKSLLKNENTRNECSGEILNNCCVMEYHQATGTLSAHFRNMSLKRIKRADRRGAESVTEEKFTVLFESQFSVGSNELVFQVKTLSLPVVVIVHGSQDHNATATVLWDNAFAEPGRVPFAVPDKVLWPQLCEALNMKFKAEVQSNRGLTKENLVFLAQKLFNNSSSHLEDYSGLSVSWSQFNRENLPGWNYTFWQWFDGVMEVLKKHHKPHWNDGAILGFVNKQQAHDLLINKPDGTFLLRFSDSEIGGITIAWKFDSPERNLWNLKPFTTRDFSIRSLADRLGDLSYLIYVFPDRPKDEVFSKYYTPVLAKAVDGYVKPQIKQVVPEFVNASADAGGSSATYMDQAPSPAVCPQAPYNMYPQNPDHVLDQDGEFDLDETMDVARHVEELLRRPMDSLDSRLSPPAGLFTSARGSLS
B5: STAT5B (protein, UniProt P51692 1-787, looked up)
Signal transducer and …: MAVWIQAQQLQGEALHQMQALYGQHFPIEVRHYLSQWIESQAWDSVDLDNPQENIKATQLLEGLVQELQKKAEHQVGEDGFLLKIKLGHYATQLQNTYDRCPMELVRCIRHILYNEQRLVREANNGSSPAGSLADAMSQKHLQINQTFEELRLVTQDTENELKKLQQTQEYFIIQYQESLRIQAQFGPLAQLSPQERLSRETALQQKQVSLEAWLQREAQTLQQYRVELAEKHQKTLQLLRKQQTIILDDELIQWKRRQQLAGNGGPPEGSLDVLQSWCEKLAEIIWQNRQQIRRAEHLCQQLPIPGPVEEMLAEVNATITDIISALVTSTFIIEKQPPQVLKTQTKFAATVRLLVGGKLNVHMNPPQVKATIISEQQAKSLLKNENTRNDYSGEILNNCCVMEYHQATGTLSAHFRNMSLKRIKRSDRRGAESVTEEKFTILFESQFSVGGNELVFQVKTLSLPVVVIVHGSQDNNATATVLWDNAFAEPGRVPFAVPDKVLWPQLCEALNMKFKAEVQSNRGLTKENLVFLAQKLFNNSSSHLEDYSGLSVSWSQFNRENLPGRNYTFWQWFDGVMEVLKKHLKPHWNDGAILGFVNKQQAHDLLINKPDGTFLLRFSDSEIGGITIAWKFDSQERMFWNLMPFTTRDFSIRSLADRLGDLNYLIYVFPDRPKDEVYSKYYTPVPCESATAKAVDGYVKPQIKQVVPEFVNASADAGGGSATYMDQAPSPAVCPQAHYNMYPQNPDSVLDTDGDFDLEDTMDVARRVEELLGRPMDSQWIPHAQS
B6: SUV39H1 (protein, UniProt O43463 1-412, looked up)
Histone-lysine …: MAENLKGCSVCCKSSWNQLQDLCRLAKLSCPALGISKRNLYDFEVEYLCDYKKIREQEYYLVKWRGYPDSESTWEPRQNLKCVRILKQFHKDLERELLRRHHRSKTPRHLDPSLANYLVQKAKQRRALRRWEQELNAKRSHLGRITVENEVDLDGPPRAFVYINEYRVGEGITLNQVAVGCECQDCLWAPTGGCCPGASLHKFAYNDQGQVRLRAGLPIYECNSRCRCGYDCPNRVVQKGIRYDLCIFRTDDGRGWGVRTLEKIRKNSFVMEYVGEIITSEEAERRGQIYDRQGATYLFDLDYVEDVYTVDAAYYGNISHFVNHSCDPNLQVYNVFIDNLDERLPRIAFFATRTIRAGEELTFDYNMQVDPVDMESTRMDSNFGLAGLPGSPKKRVRIECKCGTESCRKYLF
B7: TADA2B (protein, UniProt Q86TJ2 1-420, looked up)
Transcriptional adapter 2-beta: MAELGKKYCVYCLAEVSPLRFRCTECQDIELCPECFSAGAEIGHHRRYHGYQLVDGGRFTLWGPEAEGGWTSREEQLLLDAIEQFGFGNWEDMAAHVGASRTPQEVMEHYVSMYIHGNLGKACIPDTIPNRVTDHTCPSGGPLSPSLTTPLPPLDISVAEQQQLGYMPLRDDYEIEYDQDAETLISGLSVNYDDDDVEIELKRAHVDMYVRKLKERQRRKNIARDYNLVPAFLGKDKKEKEKALKRKITKEEKELRLKLRPLYQFMSCKEFDDLFENMHKEKMLRAKIRELQRYRRNGITKMEESAEYEAARHKREKRKENKNLAGSKRGKEDGKDSEFAAIENLPGFELLSDREKVLCSSLNLSPARYVTVKTIIIKDHLQKRQGIPSKSRLPSYLDKVLKKRILNFLTESGWISRDAS
B8: TADA3L (protein, UniProt O75528 1-432, looked up)
Transcriptional adapter 3: MSELKDCPLQFHDFKSVDHLKVCPRYTAVLARSEDDGIGIEELDTLQLELETLLSSASRRLRVLEAETQILTDWQDKKGDRRFLKLGRDHELGAPPKHGKPKKQKLEGKAGHGPGPGPGRPKSKNLQPKIQEYEFTDDPIDVPRIPKNDAPNRFWASVEPYCADITSEEVRTLEELLKPPEDEAEHYKIPPLGKHYSQRWAQEDLLEEQKDGARAAAVADKKKGLMGPLTELDTKDVDALLKKSEAQHEQPEDGCPFGALTQRLLQALVEENIISPMEDSPIPDMSGKESGADGASTSPRNQNKPFSVPHTKSLESRIKEELIAQGLLESEDRPAEDSEDEVLAELRKRQAELKALSAHNRTKKHDLLRLAKEEVSRQELRQRVRMADNEVMDAFRKIMAARQKKRTPTKKEKDQAWKTLKERESILKLLDG
B9: SSX3 (protein, UniProt Q99909 1-188, looked up)
Protein SSX3: MNGDDTFARRPTVGAQIPEKIQKAFDDIAKYFSKEEWEKMKVSEKIVYVYMKRKYEAMTKLGFKAILPSFMRNKRVTDFQGNDFDNDPNRGNQVQRPQMTFGRLQGIFPKIMPKKPAEEGNVSKEVPEASGPQNDGKQLCPPGKPTTSEKINMISGPKRGEHAWTHRLRERKQLVIYEEISDPEEDDE
B10: TADA2L (protein, UniProt O75478 1-443, looked up)
Transcriptional adapter …: MDRLGPFSNDPSDKPPCRGCSSYLMEPYIKCAECGPPPFFLCLQCFTRGFEYKKHQSDHTYEIMTSDFPVLDPSWTAQEEMALLEAVMDCGFGNWQDVANQMCTKTKEECEKHYMKHFINNPLFASTLLNLKQAEEAKTADTAIPFHSTDDPPRPTFDSLLSRDMAGYMPARADFIEEFDNYAEWDLRDIDFVEDDSDILHALKMAVVDIYHSRLKERQRRKKIIRDHGLINLRKFQLMERRYPKEVQDLYETMRRFARIVGPVEHDKFIESHALEFELRREIKRLQEYRTAGITNFCSARTYDHLKKTREEERLKRTMLSEVLQYIQDSSACQQWLRRQADIDSGLSPSIPMASNSGRRSAPPLNLTGLPGTEKLNEKEKELCQMVRLVPGAYLEYKSALLNECNKQGGLRLAQARALIKIDVNKTRKIYDFLIREGYITKG
B11: SRY (protein, UniProt Q05738 1-392, looked up)
Sex-determining region Y …: MEGHVKRPMNAFMVWSRGERHKLAQQNPSMQNTEISKQLGCRWKSLTEAEKRPFFQEAQRLKILHREKYPNYKYQPHRRAKVSQRSGILQPAVASTKLYNLLQWDRNPHAITYRQDWSRAAHLYSKNQQSFYWQPVDIPTGHLQQQQQQQQQQQFHNHHQQQQQFYDHHQQQQQQQQQQQQFHDHHQQKQQFHDHHQQQQQFHDHHHHHQEQQFHDHHQQQQQFHDHQQQQQQQQQQQFHDHHQQKQQFHDHHHHQQQQQFHDHQQQQQQFHDHQQQQHQFHDHPQQKQQFHDHPQQQQQFHDHHHQQQQKQQFHDHHQQKQQFHDHHQQKQQFHDHHQQQQQFHDHHQQQQQQQQQQQQQFHDQQLTYLLTADITGWKGIKHCTGPDPEPF

Tested on: HEK293FT cells transfected with TF library
Experiment: Screening of TF condensates based on fluorescent puncta
Assay type: cell-based
Conditions: Figure 1B numerical data; TF library screen, one value per transcriptional factor
Procedure, shortened: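 HEK293FT cells were reverse-transfected with Flag- or GAL4-tagged TF plasmids (1.6 μg/ml, PEI). After 60 h, cells were cultured 12 h with or without glucose, then fixed and immunostained with anti-Flag or anti-GAL4 and Alexa 488 secondaries. Fluorescent puncta were imaged over fifty random fields per well by high-content imaging.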

Row | Molecule | Z score of condensed fraction
1 | B1 | 0.1895
2 | B2 | -0.9569
3 | B3 | 0.09353
4 | B4 | -0.6398
5 | B5 | 2.437
6 | B6 | -0.8281
7 | B7 | -0.4021
8 | B8 | 1.084
9 | B9 | 0.2674
10 | B10 | 2.809
11 | B11 | -0.331
